This note sets out measurements from publication PMC4855633.

For this test, the target named is fibrous bovine collagen I (bovine) (UniProt P02453).
Sequence of UniProt P02453 (P02453 162-1217, chain 1 of 2): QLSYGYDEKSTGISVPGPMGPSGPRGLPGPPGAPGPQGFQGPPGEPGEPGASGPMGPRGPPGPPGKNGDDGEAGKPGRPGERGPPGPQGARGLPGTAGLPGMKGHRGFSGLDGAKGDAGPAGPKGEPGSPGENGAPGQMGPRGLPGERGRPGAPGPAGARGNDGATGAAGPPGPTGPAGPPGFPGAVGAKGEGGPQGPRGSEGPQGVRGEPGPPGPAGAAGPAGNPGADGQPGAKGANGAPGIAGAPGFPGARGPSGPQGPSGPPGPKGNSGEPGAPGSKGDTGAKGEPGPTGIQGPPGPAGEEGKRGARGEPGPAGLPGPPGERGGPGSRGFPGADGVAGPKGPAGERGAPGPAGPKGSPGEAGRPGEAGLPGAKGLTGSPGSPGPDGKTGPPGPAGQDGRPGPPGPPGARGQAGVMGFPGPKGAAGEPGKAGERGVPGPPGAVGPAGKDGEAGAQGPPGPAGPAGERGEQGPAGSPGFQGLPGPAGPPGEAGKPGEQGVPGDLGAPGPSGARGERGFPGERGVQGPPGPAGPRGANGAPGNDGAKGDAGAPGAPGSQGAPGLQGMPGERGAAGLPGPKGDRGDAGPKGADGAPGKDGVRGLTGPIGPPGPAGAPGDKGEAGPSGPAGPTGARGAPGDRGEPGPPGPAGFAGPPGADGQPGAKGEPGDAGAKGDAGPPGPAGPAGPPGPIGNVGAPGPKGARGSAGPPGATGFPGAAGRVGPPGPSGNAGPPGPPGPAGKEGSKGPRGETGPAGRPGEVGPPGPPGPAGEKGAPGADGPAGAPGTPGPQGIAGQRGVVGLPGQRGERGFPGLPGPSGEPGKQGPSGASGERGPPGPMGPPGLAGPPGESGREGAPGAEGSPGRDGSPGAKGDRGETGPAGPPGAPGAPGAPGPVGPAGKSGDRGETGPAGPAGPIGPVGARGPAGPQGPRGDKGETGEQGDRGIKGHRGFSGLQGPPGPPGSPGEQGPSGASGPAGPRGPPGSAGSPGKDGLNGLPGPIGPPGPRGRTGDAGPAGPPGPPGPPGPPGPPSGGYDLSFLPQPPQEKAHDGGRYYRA
Sequence of UniProt P02453 (P02465 80-1117, chain 2 of 2, further chain): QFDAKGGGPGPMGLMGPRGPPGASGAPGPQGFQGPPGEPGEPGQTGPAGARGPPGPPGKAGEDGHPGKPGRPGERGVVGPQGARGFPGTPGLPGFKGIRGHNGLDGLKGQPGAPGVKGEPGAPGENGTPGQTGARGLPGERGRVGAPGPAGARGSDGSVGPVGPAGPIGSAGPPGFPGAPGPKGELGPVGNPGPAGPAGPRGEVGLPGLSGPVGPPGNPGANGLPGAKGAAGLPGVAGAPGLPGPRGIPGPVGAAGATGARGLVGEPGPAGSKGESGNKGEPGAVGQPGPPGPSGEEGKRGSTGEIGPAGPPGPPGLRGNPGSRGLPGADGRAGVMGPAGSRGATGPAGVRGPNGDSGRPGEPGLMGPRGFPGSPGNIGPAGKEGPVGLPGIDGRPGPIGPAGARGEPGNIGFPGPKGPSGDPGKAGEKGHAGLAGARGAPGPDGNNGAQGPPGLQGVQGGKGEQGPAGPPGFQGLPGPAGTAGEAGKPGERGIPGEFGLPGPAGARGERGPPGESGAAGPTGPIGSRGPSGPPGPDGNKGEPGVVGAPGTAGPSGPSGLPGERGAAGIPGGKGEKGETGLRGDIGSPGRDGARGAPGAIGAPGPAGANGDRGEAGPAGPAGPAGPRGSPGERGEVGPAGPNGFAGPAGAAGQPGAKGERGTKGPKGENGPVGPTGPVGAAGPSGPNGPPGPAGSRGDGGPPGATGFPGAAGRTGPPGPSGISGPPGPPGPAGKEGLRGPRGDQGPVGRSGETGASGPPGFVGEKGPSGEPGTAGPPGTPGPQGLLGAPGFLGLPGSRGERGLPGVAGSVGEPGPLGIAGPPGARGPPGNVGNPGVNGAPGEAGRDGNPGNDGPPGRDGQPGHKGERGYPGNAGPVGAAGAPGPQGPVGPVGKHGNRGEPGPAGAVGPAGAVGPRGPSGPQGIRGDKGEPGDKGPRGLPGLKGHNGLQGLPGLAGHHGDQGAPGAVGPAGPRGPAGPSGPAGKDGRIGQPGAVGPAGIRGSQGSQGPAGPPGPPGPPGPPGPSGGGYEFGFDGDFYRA

Regarding “glycoprotein VI (from UniProt Q9HCN6 21-339) (receptor)”, the reduction of static adhesion of washed human platelets to fibrous collagen I by anti-GPVI scFv in the presence of EDTA, relative to EDTA alone stood at 40% and the reduction of static adhesion of washed human platelets to fibrous collagen I by anti-GPVI scFv in the presence of EDTA, relative to control is 70%.
